2 substances from publication PMC8080847 can be followed below.

Bounds are passed on as bounds.

Experiment [1] has as its target EGFR on Cos7 cells (African green monkey (endogenous in Cos7)). Briefly: single-molecule diffusional mobility shift assay (smDIMSA); living Cos7 cells treated with EGF and pertuzumab; EGFR bait labelled with Fab-Alexa Fluor 647, tracked before and after the anti-ErbB2 antibody.
Experiment [2] has the same target. Briefly: single-molecule diffusional mobility shift assay (smDIMSA); living Cos7 cells treated with EGF, no pertuzumab (mock); EGFR bait labelled with Fab-Alexa Fluor 647, tracked before and after the anti-ErbB2 antibody.
In experiment [3] the target is mEos3.2-CD86 (CD86 truncated at R227) (UniProt P42081). Briefly: single-molecule diffusional mobility shift assay (smDIMSA); homodimer format on living HeLa cells: receptor partially labelled with the Alexa Fluor 647 Fab (20 nM, 15 min) of a monoclonal antibody, tracked before and after 15 min with the same full-length antibody; 37 °C; peak shift averaged from multiple cells.

For ErbB2 on Cos7 cells (receptor), the diffusion coefficient shift (EGF-treated cells, with pertuzumab) in experiment [1] was 6%. For the same substance, the diffusion coefficient shift (EGF-treated cells) in experiment [2] was determined as 12%.
“mEos3.2-CD86 (CD86 truncated at R227) (from UniProt P42081 24-227) (receptor)”: the peak shift of the diffusion coefficient in experiment [3] is less than 1%.
